The source of these data is patent US20240010741A1 (MAB DISCOVERY, published 2024).

Numbering of substitutions follows the chain as printed. Names and notes keep the numbering of the source.

B1: CP-870,893 (antibody, V domains shown)
VH: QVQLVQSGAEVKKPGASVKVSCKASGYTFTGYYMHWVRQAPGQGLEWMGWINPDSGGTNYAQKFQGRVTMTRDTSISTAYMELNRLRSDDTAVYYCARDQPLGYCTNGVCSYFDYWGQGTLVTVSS
VL: DIQMTQSPSSVSASVGDRVTITCRASQGIYSWLAWYQQKPGKAPNLLIYTASTLQSGVPSRFSGSGSGTDFTLTISSLQPEDFATYYCQQANIFPLTFGGGTKVEIKR
B2: MAB-16-0464 (antibody, V domains shown)
VH: EVQLEESGGGLVQPGGSLRLSCAASGFDFSSNAMSWVRQAPGKGLEWVGTIYAGSNGNTDYASWAKGRFTISKDTSKTTLYLQMNSLRAEDTATYFCARGASYFTLWGQGTLVTVSS
VL: DIVMTQSPSSLSASVGDRVTITCQASESVVSNNRLAWYQQKPGQAPKLLIYLASTLPSGVPSRFSGSGSGTDFTLTISSLQPEDFATYYCAGYKSSSTDGTAFGQGTKVVIK
notes: Humanized IgG1-LALA (L234A, L235A in the human IgG1 Fc, EU numbering)
B3: MAB-16-0262 (antibody, V domains shown)
VH: EVQLEESGGGLVQPGGSLRLSCAASGFDFSTNAMCWVRQAPGKGLEWVACIAAGSSIITYYASWAKGRFTISKDTSKTTLYLQMNSLRAEDTAVYFCARGLSRFALWGQGTLVTVSS
VL: DIVMTQSPSSLSASVGDRVTITCQASQSISSYLSWYQQKPGQAPKLLIYLTSTLASGVPSRFSGSGSGTDFTLTISSLQPEDFATYYCQGYYSSSSYVSNGFGQGTKVVIK
notes: as for B2
B4: MAB-16-0451 (antibody, V domains shown)
VH: B3 VH with T31S, A33T, A52Y, I57G, I58S, T75I, V94T, A105S
VL: DIVMTQSPSSLSASVGDRVTITCQASQSISNYLAWYQQKPGQAPKLLIYDASKLASGVPSRFSGSGSGTDFTLTISSLQPEDFATYYCQGGDYYGSSYVVAFGGGTKVVIK
notes: as for B2
B5: MAB-16-0489 (antibody, V domains shown)
VH: EVQLEESGGGLVQPGASLRLSCAASGIDFSRYFYVCWVRQAPGKGLEWVGCFANHDDSIYYAGWMNGRFTISKDTSKTTLYLQMNSLRAEDTATYFCARGVDYTVGYGGAAFNLWGQGTLVTVSS
VL: DIVMTQSPSSLSASVGDRVTITCQASQSIGSYLSWYQQKPGQAPKLLIYRATTLASGVPSRFSGSGSGTDFTLTISSLQPEDFATYYCQSYYRDSSSSAFGQGTKVVIK
notes: humanized anti-CD40 IgG1-LALA antibody of the invention
B6: MAB-16-0400 (antibody, V domains shown)
VH: EVQLEESGGGLVQPGGSLRLSCAASGIDFSRYFYMCWVRQAPGKGLEWVACIGPGVSGDTYYASWAKGRFTISGDTSKTTLYLQMNSLRAEDTATYFCARGVDYTYGDAGAAFNLWGQGTLVTVSS
VL: DIVMTQSPSSLSASVGDRVTITCQASQSISSYLAWYQQKPGQAPKLLIYRASILASGVPSRFSGSGSGTDFTLTISSLQPEDFATYYCQTYYSSRTYSYGSPNAFGQGTKVVIK
notes: as for B5
B7: MAB-16-0346 (antibody, V domains shown)
VH: B2 VH with S31T, M34V, T50S, Y52S, N56S, N58S, D60Y, A101Y, S102T, F104L
VL: DIVMTQSPSSLSASVGDRVTITCQASHSISSTYLSWYQQKPGQAPKLLIYRASTLASGVPSRFSGSGSGTDFTLTISSLQPEDFATYYCQYTDYGSSYVSTFGQGTKVVIK
notes: as for B5
B8: MAB-16-0484 (antibody, V domains shown)
VH: EVQLEESGGGLVQPGGSLRLSCAASGIDFSRYYYICWVRQAPGKGPEWVACFANGDGSTYYASWAKGRFTISKDTSKTTLYLQMNSLRAEDTATYFCARGADYSGGAAAFNLWGQGTLVTVSS
VL: DIQMTQSPSSLSASVGDRVTITCQASQSISSRLAWYQQKPGQAPKLLIYRASTLASGVPSRFSGSGSGTDFTLTISSLQPEDFATYYCQDYYGSSTEYNAFGQGTKVVIK
notes: as for B5
B9: MAB-16-0267 (antibody, V domains shown)
VH: EVQLEESGGDLVQPGASLRLSCAASGFDFNSNAMSWVRQAPGKGLEWVASIYAGGSGSTYYASWAKGRFTISKDTSKTTLYLQMNSLRAEDTATYFCARGITRLPLWGQGTLVTVSS
VL: B8 VL with R32Y, R50D, T53K, D90G, Y91T, G93Y, S94G, E97T, Y98I, N99S
notes: as for B5
B10: MAB-16-0406 (antibody, V domains shown)
VH: B8 VH with I35M, F52Y, A53S, G105A
VL: B8 VL with Q27E, S30G, S31N, R32A, A34V, T53I, A100T
notes: as for B5
B11: CD40L containing a mouse-IgG2a Fc-tag (AB Biosciences) (Fc fusion, UniProt P29965 113-261, looked up)
chain: MQKGDQNPQIAAHVISEASSKTTSVLQWAEKGYYTMSNNLVTLENGKQLTVKRQGLYYIYAQVTFCSNREASSQAPFIASLCLKSPGRFERILLRAANTHSSAKPCGQQSIHLGGVFELQPGASVFVNVTDPSQVSHGTGFTSFGLLKL
notes: not shown: mouse IgG2a Fc tag

T3 sequence (P25942 21-277 limits assumed): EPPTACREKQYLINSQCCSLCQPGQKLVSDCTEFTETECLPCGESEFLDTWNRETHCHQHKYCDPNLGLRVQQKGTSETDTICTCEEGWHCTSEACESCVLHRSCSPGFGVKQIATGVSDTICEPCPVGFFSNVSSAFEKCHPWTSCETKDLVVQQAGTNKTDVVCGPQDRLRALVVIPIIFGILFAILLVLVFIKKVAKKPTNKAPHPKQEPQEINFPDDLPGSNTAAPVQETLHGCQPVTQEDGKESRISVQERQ
Sequence of soluble human CD40 monomeric protein (Acro Biosystems) (P25942 21-193 limits assumed): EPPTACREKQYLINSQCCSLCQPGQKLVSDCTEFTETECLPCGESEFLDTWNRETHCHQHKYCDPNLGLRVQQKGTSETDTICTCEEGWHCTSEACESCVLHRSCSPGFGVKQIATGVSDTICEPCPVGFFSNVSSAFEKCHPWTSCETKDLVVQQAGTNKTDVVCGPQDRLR

The first test deals with soluble human CD40 monomeric protein (Acro Biosystems) (human, UniProt P25942 21-193). Kind of test: SPR Biacore T200, antibody captured via anti-human Fc, soluble CD40 as analyte, 1:1 model. On the procedure:
(§1) a. The biochemical affinities of the antibodies of the invention was determined by surface plasmon resonance measurements. Antibodies were reversibly immobilized to a CM5 sensor chip surface via an anti-human Fc antibody. The kinetics of the interaction of immobilized antibodies with soluble human or cynomolgus monkey CD40 monomeric protein (Acro Biosystems) were analysed on a Biacore T200 SPR instrument. Kinetic data were determined using a Langmuir 1:1 binding model.
(§2) Biochemical affinities were measured by surface plasmon resonance on a Biacore T200 SPR instrument. Kinetic data were determined using a Langmuir 1:1 binding model.
Background: Surface plasmon resonance follows binding to a sensor surface in real time, without labels.
Consider B1, for which the equilibrium dissociation constant (Kd) came to 8.9 nM.
The same measure, in the same setting: as for B2, the figure is 2.6 nM; as for B3, 15.7 nM; as for B4, 1.2 nM.

In the next test the target is T1, recombinant CD40 protein (UniProt P25942 21-193, limits assumed).
T1 construct: Construct not described; also called CD40 recombinant protein
T1 sequence (P25942 21-193 limits assumed): as above
Kind of test: CD40L competition ELISA: antibody (5 µg/ml) preincubated with recombinant CD40 (1.7 µg/ml), complex added to coated CD40L, detected with anti-human F(ab)2-peroxidase; a low signal means competition with CD40L. Here is the method: Competition of humanized anti-CD40 IgG1-LALA monoclonal antibodies with CD40L binding to CD40 was tested using an ELISA assay. CD40L was coated to the surface of a 384-well Nunc™ MaxiSorp™ plate in a volume of 25 μl PBS and at a concentration of 1 μg/ml for one hour at room temperature. Antibodies were pre-incubated at a concentration of 5 μg/ml with recombinant CD40 protein at a concentration of 1.7 μg/ml in a total volume of 40 μl for 1.5 hours at room temperature in ELISA buffer (PBS, 0.5% BSA, 0.05% Tween). The Nunc™ MaxiSorp™ plate was washed three times with wash buffer (PBS, 0.1% Tween) and blocked for one hour at room temperature with PBS, 2% BSA, 0.05% Tween. After three washes in wash buffer, 25 μl of the antibody-CD40 complex were added to the Nunc™ MaxiSorp™ plate wells and incubated for one hour at room temperature. After 3 washes in wash buffer, wells were incubated with 25 μl of a 1:2000 dilution of anti-human peroxidase-linked, species specific F(ab) 2 Fragment from goat (AbD Serotec) in ELISA buffer for one hour at room temperature. Wells were washed six times with wash buffer and 30 μl/well TMB substrate solution (Invitrogen) were added. After 10 minutes at room temperature, 30 μl Stop solution (1M HCl) was added per well and absorbance at 450 and 620 nm wavelength was measured using a Tecan M1000 microplate reader.
Take B5: the “OD at 450 nm” value was determined as 0.01 OD.
Same read-out and setting: in the case of B6 it was 0.08 OD; in that of B7, 0.09 OD.
The same measure, in the same setting: as for B2, the figure is 0.09 OD.
Same read-out and setting: in the case of B8 it was 0.07 OD.
As for B9, the “OD at 450 nm” value amounted to 0.1 OD.
Still for that read-out and setting: in the case of B10 it was 0.07 OD.
In the case of B3, the “OD at 450 nm” value amounted to 0.11 OD.
With B4, the “OD at 450 nm” value is 0.13 OD.

Another test addresses T2, soluble cynomolgus monkey CD40 monomeric protein (Acro Biosystems) (cynomolgus monkey, UniProt G7PG38 21-193).
T2 construct: May be the same reagent as m11; also called cynomolgus monkey CD40 protein
Kind of test: SPR (Biacore T200), antibody captured via anti-human Fc on CM5 chip, soluble cynomolgus CD40 as analyte, Langmuir 1:1 model. On the procedure:
as §1, §2
B2 came in with a Kd of 2.2 nM.
The same measure, in the same setting: in the case of B3 it was 10.3 nM; in that of B4, 0.8 nM.

A further test addresses T3, cell-expressed CD40 (UniProt P25942 21-277, limits assumed).
T3 construct: whole, on cells; also called CD40 on HEK-Blue-CD40L cells; cell surface CD40
Description: cell binding on HEK-Blue-CD40L cells, Alexa-Fluor-488 anti-human IgG, high content imaging. Here is the method: Antibodies were added to final concentrations ranging from 1.25 μg/ml to 0.01 ng/ml in 5 μl medium. After 24h cells were washed three times with 25 μl wash buffer (PBS, 0.05% Tween) before Alexa-Fluor-488-conjugated goat anti-human-IgG (Jackson Laboratories) was added at a concentration of 0.8 μg/ml in 20 μl medium. Four hours later, 5 μl Hoechst dye in medium was added to a final concentration of 51.1 µg/ml. Fluorescent cell binding signals were measured using a CellInsight automated high content imager (Thermo Fisher Scientific). Fitting curves and EC50 calculation were obtained by using Excel (Microsoft) and XLfit (IDBS).
Turning to B5, the midpoint of the response, the EC50, lay at 3.2 ng/mL.
As to B6, the EC50 was 5.8 ng/mL.
Same read-out and setting: as for B7, the figure is 49.5 ng/mL.
Still for that read-out and setting: in the case of B2 it was 3 ng/mL; in that of B8, 21.9 ng/mL; in that of B9, 3.4 ng/mL.
Still for that read-out and setting: as for B10, the figure is 6.6 ng/mL; as for B3, 6.3 ng/mL.
Molecule B4 displayed an EC50 of 8.9 ng/mL.

The target of the next test is T4, Recombinant cyno-CD40 protein (Acro Biosystems) (cynomolgus monkey (Macaca fascicularis), UniProt G7PG38 21-193).
T4 construct: also called cynomolgus monkey-CD40 protein; recombinant cynomolgus monkey CD40 recombinant protein
Kind of test: ELISA on coated recombinant cynomolgus monkey CD40. Here is the method: Binding of humanized anti-CD40 IgG1-LALA monoclonal antibodies to cynomolgus monkey-CD40 protein was tested in a biochemical ELISA. Recombinant cyno-CD40 protein (Acro Biosystems) was incubated in a 384-well Nunc™ MaxiSorp™ plate at a concentration of 0.5 μg/ml in PBS for one hour at room temperature. After washing three times with wash buffer (PBS, 0.1% Tween), plates were blocked with PBS, 2% BSA, 0.05% Tween for one hour at room temperature. Plates were washed again three time with wash buffer and antibodies at concentrations ranging from 500 to 0.03 ng/ml in PBS, 0.5% BSA, 0.05% Tween were incubated for one hour at room temperature. After 3 washes in wash buffer, wells were incubated with 12.5 μl of a 1:3000 dilution of anti-human peroxidase-linked, species specific F(ab) 2 Fragment from goat (AbD Serotec) in ELISA buffer for one hour at room temperature. Wells were washed six times with wash buffer and 15 μl/well TMB substrate solution (Invitrogen) were added. After 10 minutes at room temperature 15 μl Stop solution (1M HCl) were added per well and absorbance at 450 and 620 nm wavelength was measured using a Tecan M1000 microplate reader. Fitting curves and EC50 calculation were obtained by using Excel (Microsoft) and XLfit (IDBS).
For orientation: An ELISA detects its analyte on a solid surface through an enzyme-linked reagent.
With B1, the EC50 was found to be 8 ng/mL.
The same measure, in the same setting: in the case of B7 it was 8.2 ng/mL; in that of B2, 8 ng/mL.
Same read-out and setting: as for B8, the figure is 31.8 ng/mL; as for B9, 7 ng/mL; as for B10, 11.1 ng/mL.
On the same count and under the same terms, as for B3, the figure is 11.9 ng/mL.
As to B4, the EC50 was 10.4 ng/mL.

Another test concerns the target T3, cell-expressed CD40. Description: flow cytometry on HEK-Blue-CD40L cells preincubated with CP870,893 IgG1-LALA at EC90, CD40L-mouse IgG2a Fc titrated, DyLight 405 anti-mouse IgG [Detection of CD40L binding]. On the procedure: (§3) a. Binding of anti CD40 antibodies of the invention to HEK-Blue-CD40L™ cells in the presence of CD40L was tested to verify whether the antibodies bind to the CD40L binding site of cell surface CD40. […] CD40L containing a mouse-IgG2a Fc-tag (AB Biosciences) was added at concentration ranging from 10000 to 9.8 ng/ml and cells were incubated for 60 minutes at 4° C. Anti-CD40 antibodies and CD40L bound to cell-expressed CD40 were detected using secondary DyLight 405-conjugated anti-mouse IgG and Alexa Fluor 488-conjugated anti-human IgG (Jackson Laboratories) and analyzed using FACSVerse instrument (BD).
Background: A flow cytometer gives signals particle by particle.
Take B11: the “EC50 (read off the curve)” value is roughly 400 ng/mL.

For the next test, the target named is T3, cell-expressed CD40. Kind of test: flow cytometry on HEK-Blue-CD40L cells preincubated with isotype control IgG1-LALA, CD40L-mouse IgG2a Fc titrated, DyLight 405 anti-mouse IgG [Detection of CD40L binding]. On the procedure:
as §3
Consider B11, for which the 50% effective concentration (EC50 (read off the curve)) is roughly 200 ng/mL.

One may read the Kd as the equilibrium constant for the complex coming apart. In general, EC50 refers to the concentration at which the effect is half-maximal. As usually defined, the EC50 (read off the curve) is the concentration giving half of the maximal effect.
